Data: article PMC12084609, “Structural insights into small-molecule agonist recognition and activation of complement receptor C3aR” (The EMBO Journal, 2025)
Substitutions are numbered along the chain they refer to. Values joined by “and” are separate entries in the source; they are usually repeats but may differ in a detail not shown here. Identical values can stand only once.

Legend:
Type in all cases: cell-based
[1] = target: T1, C3aR V103^3.33A (Homo sapiens, UniProt Q16581, V103A); experiment: GloSensor-based cAMP assay, C3aR mutant V103A; settings: for cAMP response (% Forskolin): single replicates
T1 construct: expressed in transfected cells; host or cells: HEK293T
T1 sequence (Q16581 1-482 V103A): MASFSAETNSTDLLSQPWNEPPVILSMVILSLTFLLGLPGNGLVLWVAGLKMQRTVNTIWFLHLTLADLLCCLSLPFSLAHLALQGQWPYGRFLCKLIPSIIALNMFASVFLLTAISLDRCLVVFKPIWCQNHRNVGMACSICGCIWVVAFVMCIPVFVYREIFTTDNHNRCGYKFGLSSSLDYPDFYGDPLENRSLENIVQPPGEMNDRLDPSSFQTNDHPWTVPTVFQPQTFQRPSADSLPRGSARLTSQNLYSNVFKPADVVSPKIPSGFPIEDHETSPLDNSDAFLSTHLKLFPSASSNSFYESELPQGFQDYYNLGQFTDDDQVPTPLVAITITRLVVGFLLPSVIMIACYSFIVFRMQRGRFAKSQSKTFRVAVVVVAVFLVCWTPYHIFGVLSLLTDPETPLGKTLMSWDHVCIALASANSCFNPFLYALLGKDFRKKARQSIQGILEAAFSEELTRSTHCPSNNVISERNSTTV
Description: (§1) HEK293T cells were seeded on 6-well plates (NEST) and transfected with pGlosensor™-22F plasmids (Promega) and pcDNA3.1 plasmids encoding C3aR or its mutants an with N-terminal FLAG tag. After 48 h, cells were detached with Accutase solution (Sigma-Aldrich) and washed with PBS, and resuspended in assay buffer (CO2-independent medium with 0.5 mg mL^−1D-luciferin). 100,000–200,000 cells were seeded on 96-well white bottom plates (SPL) and incubated at 37 °C for 45 min followed by 45 min incubation at room temperature. After 90 min of incubation, basal luminescence signals were recorded. In total, 25 μl of test ligand with various concentrations and 1 μM Forskolin (Sigma-Aldrich) were treated to the cells and luminescence signals were measured by Tristar 2 LB 942 multimode reader (Berthold). […] Relative luminescence unit (%) was calculated with the signal of wells treated with vehicle as 0% and the signal of wells treated with 1 μM Forskolin as 100% (DiRaddo et al, [2014]). Nonlinear regression was performed using a three-parameter logistic equation.

[2] = target: T2, C3aR P99^3.29A (Homo sapiens, UniProt Q16581, P99A); experiment: GloSensor-based cAMP assay, C3aR mutant P99A; settings: for cAMP response (% Forskolin): P993.29A, single replicates
T2 construct: expressed in transfected cells; host or cells: HEK293T
T2 sequence (Q16581 1-482 P99A): T1 sequence (Q16581 1-482 V103A) with P99A, A103V
Description: as §1

[3] = target: T3, C3aR I421^7.39A (Homo sapiens, UniProt Q16581, I421A); experiment: GloSensor-based cAMP assay, C3aR mutant I421A; settings: for cAMP response (% Forskolin): I4217.39A, single replicates
T3 construct: expressed in transfected cells; host or cells: HEK293T
T3 sequence (Q16581 1-482 I421A): T1 sequence (Q16581 1-482 V103A) with A103V, I421A
Description: as §1

[4] = Dunnett's multiple comparisons test, WT minus mutant

C3a: anaphylatoxin C3a, natural peptide ligand of C3aR (a 77-amino acid peptide), Sigma-Aldrich
Mean Diff. of pIC50, WT vs. V103A [1, 4]: 0.086
cAMP response (% Forskolin) ([1]; V103A, Log[C3a (M)] -7): 16.81 % Forskolin and 17.64 % Forskolin and 16.37 % Forskolin
cAMP response (% Forskolin) ([1]; V103A, Log[C3a (M)] -8): 18.63 % Forskolin and 17.74 % Forskolin and 17.49 % Forskolin
cAMP response (% Forskolin) ([1]; V103A, Log[C3a (M)] -9): 66.34 % Forskolin and 67.98 % Forskolin and 37.55 % Forskolin
cAMP response (% Forskolin) ([1]; V103A, Log[C3a (M)] -10): 87.50 % Forskolin and 90.87 % Forskolin and 75.99 % Forskolin
cAMP response (% Forskolin) ([1]; V103A, Log[C3a (M)] -11): 101.77 % Forskolin and 100.57 % Forskolin and 97.94 % Forskolin
cAMP response (% Forskolin) ([1]; V103A, Log[C3a (M)] -12): 105.75 % Forskolin and 100.95 % Forskolin and 97.98 % Forskolin
ΔpIC50 ± SE of Diff. ([1]; V103^3.33A relative to WT C3aR): -0.09 ± 0.05
IC50 ([1]; V103^3.33A, dose-response plot, read-out: IC50): 3.53 nM
pIC50 (Replicate) ([1]; V103^3.33A, individual replicates): 8.49 and 8.72 and 8.44 and 8.20
pIC50 ± SEM (Mean) ([1]; V103^3.33A, mean of independent experiments): 8.46
cAMP response (% Forskolin) ([1]; V1033.33A, Log[C3a (M)] -7): 19.41 % Forskolin and 19.52 % Forskolin and 19.42 % Forskolin and 22.72 % Forskolin
cAMP response (% Forskolin) ([1]; V1033.33A, Log[C3a (M)] -8): 24.04 % Forskolin and 22.92 % Forskolin and 25.51 % Forskolin and 44.96 % Forskolin
cAMP response (% Forskolin) ([1]; V1033.33A, Log[C3a (M)] -9): 89.16 % Forskolin and 71.89 % Forskolin and 87.77 % Forskolin and 103.75 % Forskolin
cAMP response (% Forskolin) ([1]; V1033.33A, Log[C3a (M)] -10): 100.58 % Forskolin and 94.90 % Forskolin and 95.96 % Forskolin and 103.23 % Forskolin
cAMP response (% Forskolin) ([1]; V1033.33A, Log[C3a (M)] -11): 100.23 % Forskolin and 96.38 % Forskolin and 92.81 % Forskolin and 102.90 % Forskolin
cAMP response (% Forskolin) ([1]; V1033.33A, Log[C3a (M)] -12): 97.59 % Forskolin and 96.90 % Forskolin and 93.29 % Forskolin and 103.97 % Forskolin
Mean Diff. of pIC50, WT vs. P99A [2, 4]: 0.364
ΔpIC50 ± SE of Diff. ([2]; P99^3.29A relative to WT C3aR): -0.36 ± 0.06
IC50 ([2]; P99^3.29A, dose-response plot, read-out: IC50): 6.44 nM
pIC50 (Replicate) ([2]; P99^3.29A, individual replicates): 8.35 and 8.23 and 8.15
pIC50 ± SEM (Mean) ([2]; P99^3.29A, mean of independent experiments): 8.18
cAMP response (% Forskolin) ([2]; Log[C3a (M)] -7): 12.82 % Forskolin and 13.55 % Forskolin and 15.36 % Forskolin and 12.84 % Forskolin
cAMP response (% Forskolin) ([2]; Log[C3a (M)] -8): 28.00 % Forskolin and 35.91 % Forskolin and 53.45 % Forskolin and 42.74 % Forskolin
cAMP response (% Forskolin) ([2]; Log[C3a (M)] -9): 95.96 % Forskolin and 92.86 % Forskolin and 104.37 % Forskolin and 97.87 % Forskolin
cAMP response (% Forskolin) ([2]; Log[C3a (M)] -10): 102.35 % Forskolin and 93.68 % Forskolin and 104.69 % Forskolin and 98.88 % Forskolin
cAMP response (% Forskolin) ([2]; Log[C3a (M)] -11): 98.97 % Forskolin and 94.82 % Forskolin and 109.09 % Forskolin and 99.84 % Forskolin
cAMP response (% Forskolin) ([2]; Log[C3a (M)] -12): 103.44 % Forskolin and 97.11 % Forskolin and 100.69 % Forskolin and 103.75 % Forskolin
Mean Diff. of pIC50, WT vs. I421A [3, 4]: -0.119
reduction in ligand-induced signaling vs WT ([3]; I421^7.39A mutant): minor effect
ΔpIC50 ± SE of Diff. ([3]; I421^7.39A relative to WT C3aR): 0.12 ± 0.03
IC50 ([3]; I421^7.39A, dose-response plot, read-out: IC50): 2.54 nM
pIC50 (Replicate) ([3]; I421^7.39A, individual replicates): 8.63 and 8.57 and 8.45 and 8.43 and 8.89 and 8.83
pIC50 ± SEM (Mean) ([3]; I421^7.39A, mean of independent experiments): 8.61
cAMP response (% Forskolin) ([3]; Log[C3a (M)] -7): 16.32 % Forskolin and 12.05 % Forskolin and 12.43 % Forskolin and 14.57 % Forskolin and 9.51 % Forskolin and 8.99 % Forskolin and 8.25 % Forskolin
cAMP response (% Forskolin) ([3]; Log[C3a (M)] -8): 20.11 % Forskolin and 16.00 % Forskolin and 16.82 % Forskolin and 18.52 % Forskolin and 13.73 % Forskolin and 11.22 % Forskolin and 10.34 % Forskolin
cAMP response (% Forskolin) ([3]; Log[C3a (M)] -9): 77.07 % Forskolin and 83.92 % Forskolin and 80.09 % Forskolin and 92.33 % Forskolin and 88.01 % Forskolin and 57.33 % Forskolin and 61.66 % Forskolin
cAMP response (% Forskolin) ([3]; Log[C3a (M)] -10): 97.12 % Forskolin and 96.88 % Forskolin and 97.52 % Forskolin and 98.66 % Forskolin and 91.65 % Forskolin and 90.54 % Forskolin and 92.28 % Forskolin
cAMP response (% Forskolin) ([3]; Log[C3a (M)] -11): 100.24 % Forskolin and 95.23 % Forskolin and 97.32 % Forskolin and 97.61 % Forskolin and 88.75 % Forskolin and 89.55 % Forskolin and 96.90 % Forskolin
cAMP response (% Forskolin) ([3]; Log[C3a (M)] -12): 96.20 % Forskolin and 95.22 % Forskolin and 96.06 % Forskolin and 97.86 % Forskolin and 95.09 % Forskolin and 99.13 % Forskolin and 96.01 % Forskolin
